Reference: patent US7893032B2, “NgR variants and compositions thereof for suppressing axonal growth inhibition” (Yale University, priority 2005, dated 2011)
Numbering of substitutions follows the chain as printed. Names may count otherwise.

B1: wild-type NgR: Wild-type full-length human NgR protein (protein, listed as Homo sapiens)
chain: MKRASAGGSRLLAWVLWLQAWQVAAPCPGACVCYNEPKVTTSCPQQGLQAVPVGIPAASQRIFLHGNRISHVPAASFRACRNLTILWLHSNVLARIDAAAFTGLALLEQLDLSDNAQLRSVDPATFHGLGRLHTLHLDRCGLQELGPGLFRGLAALQYLYLQDNALQALPDDTFRDLGNLTHLFLHGNRISSVPERAFRGLHSLDRLLLHQNRVAHVHPHAFRDLGRLMTLYLFANNLSALPTEALAPLRALQYLRLNDNPWVCDCRARPLWAWLQKFRGSSSEVPCSLPQRLAGRDLKRLAANDLQGCAVATGPYHPIWTGRATDEEPLGLPKCCQPDAADKASVLEPGRPASAGNALKGRVPPGDSPPGNGSGPRHINDSPFGTLPGSAEPPLTAVRPEGSEPPGFPTSGPRRRPGCSRKNRTRSHCRLGQAGSGGGGTGDSEGSGALPSLTCSLTPLGLALVLWTVLGPC
B2: NgR-R377Q: Full length human NgR R377Q mutant protein (protein)
chain: B1 chain with R377Q
modifications: Human NgR R377Q mutant
notes: Full length human NgR R377Q mutant protein

Tests used:
[1] = tested on: E7 chick DRG growth cones; assay: Nogo-induced growth cone collapse in E7 chick DRG neurons expressing NgR proteins; format: cell-based; conditions: for growth cone collapse in the presence of Nogo: E7 DRG cells expressing the protein from a viral vector, 100 μM Nogo-66 (FIG. 2 legend)
Description: (§1) FIG. 2 quantifies collapsed E7 (A) or E13 (B) chick DRG growth cones expressing the indicated proteins and exposed (dark) or not exposed (light) to 100 μM Nogo-66.
The signaling ability of the NgR mutant proteins was directly assessed by expressing the proteins in chick DRG neurons and monitoring Nogo-induced growth cone collapse. […] (FIG. 2A).

[2] = tested on: E13 chick DRG growth cones; assay: Nogo-induced growth cone collapse in E13 chick DRG neurons overexpressing NgR proteins; format: cell-based; conditions: E13 DRG cells with endogenous NgR; 100 μM Nogo-66 (FIG. 2 legend)
Description: as §1
At E13, DRG neurons express NgR and respond to Nogo with growth cone collapse that is not altered by overexpression of wild-type NgR. (FIG. 2B). […] (FIG. 2B). Thus, NgR-R377Q is a dominant negative protein.

Row | Molecule | growth cone collapse in the presence of Nogo [1] | effect of overexpression on extent of Nogo-induced growth cone collapse [2] | signaling ability (signal transduction) ([1]; E7 DRG cells expressing the protein, Nogo-induced growth cone collapse as readout)
1 | B1 | exhibited growth cone collapse in the presence of Nogo | not altered | 
2 | B2 | did not | significantly decreased | inactive in signal transduction
